Test results taken from PMC7884425 (2021).
Positions count from the first letter of the chain named.

T1: human HPF1 R239A (human, UniProt Q9NWY4 1-346, R239A)
T1 sequence: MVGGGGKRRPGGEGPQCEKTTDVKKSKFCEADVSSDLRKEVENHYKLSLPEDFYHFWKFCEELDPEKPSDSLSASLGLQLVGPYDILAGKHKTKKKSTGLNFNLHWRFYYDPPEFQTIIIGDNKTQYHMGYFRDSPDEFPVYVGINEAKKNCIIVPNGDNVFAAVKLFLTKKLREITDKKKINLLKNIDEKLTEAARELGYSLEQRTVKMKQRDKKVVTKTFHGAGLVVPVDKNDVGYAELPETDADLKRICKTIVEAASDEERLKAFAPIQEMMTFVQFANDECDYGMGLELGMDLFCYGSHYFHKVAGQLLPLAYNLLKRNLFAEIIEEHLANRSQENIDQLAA

T2: human HPF1 F280A (human, UniProt Q9NWY4 1-346, F280A)
T2 sequence: T1 sequence with A239R, F280A

T3: human HPF1 K307S (human, UniProt Q9NWY4 1-346, K307S)
T3 sequence: T1 sequence with A239R, K307S

T4: human HPF1 F139S (human, UniProt Q9NWY4 1-346, F139S)
T4 sequence: T1 sequence with F139S, A239R

T5: human HPF1 E138K (human, UniProt Q9NWY4 1-346, E138K)
T5 sequence: T1 sequence with E138K, A239R

T6: human HPF1 K216E (human, UniProt Q9NWY4 1-346, K216E)
T6 sequence: T1 sequence with K216E, A239R

B1: human PARP1-CAT ΔHD (661-678-GSGSGSGG-787-1014) (domain or fragment)
chain: TKSKLPKPVQDLIKMIFDGSGSGSGGKDPIDVNYEKLKTDIKVVDRDSEEAEIIRKYVKNTHATTHNAYDLEVIDIFKIEREGECQRYKPFKQLHNRRLLWHGSRTTNFAGILSQGLRIAPPEAPVTGYMFGKGIYFADMVSKSANYCHTSQGDPIGLILLGEVALGNMYELKHASHISKLPKGKHSVKGLGKTTPDPSANISLDGVDVPLGTGISSGVNDTSLLYNEYIVYDIAQVNLKYLLKLKFNFKTSLW
B2: human HPF1 (histone PARylation factor 1), wild-type (natural protein)
chain: T1 sequence with A239R

Experiments:
[1] = target: T1, human HPF1 R239A; experiment: ITC; replicate 1
[2] = target: T2, human HPF1 F280A; experiment: ITC; replicate 1
[3] = target: T3, human HPF1 K307S; experiment: ITC; replicate 1
[4] = target: T1, human HPF1 R239A; experiment: ITC; replicate 2
[5] = target: T2, human HPF1 F280A; experiment: ITC; replicate 2
[6] = target: T3, human HPF1 K307S; experiment: ITC; replicate 2
[7] = target: T4, human HPF1 F139S; experiment: ITC; replicate 1
[8] = target: T5, human HPF1 E138K; experiment: ITC; replicate 1
[9] = target: T4, human HPF1 F139S; experiment: ITC; replicate 2
[10] = target: T6, human HPF1 K216E; experiment: ITC; replicate 2
[11] = target: T5, human HPF1 E138K; experiment: ITC; replicate 2
[12] = target: B1; experiment: ITC; replicate 2
[13] = target: PARP1 D756A (human, UniProt P09874 1-1014, D756A); experiment: ITC; in the presence of DNA

| Ka [1] [M⁻¹] | Ka [2] [M⁻¹] | Ka [3] [M⁻¹] | Ka [4] [M⁻¹] | Ka [5] [M⁻¹] | Ka [6] [M⁻¹] | Ka [7] [M⁻¹] | Ka [8] [M⁻¹] | Ka [9] [M⁻¹] | Ka [10] [M⁻¹] | Ka [11] [M⁻¹] | Ka [12] [M⁻¹] | Ka [13] [M⁻¹] | Binder |
| --- | --- | --- | --- | --- | --- | --- | --- | --- | --- | --- | --- | --- | --- |
| 432000 | 147000 | 95700 | 402000 | 212000 | 123000 | 400000 | 617000 | 440000 | 725000 | 583000 |  |  | B1 |
|  |  |  |  |  |  |  |  |  |  |  | 642000 | 333000 | B2 |
